Data on 94 variants can be found in the supplement of paper PMC10567573.

The labels stand for the following.
B1: SLC35F2 (parent)
chain: SFMPLVIKVTSATSVNLGILTADL
B2: RIPK4 (parent)
chain: VIDLFDEQGLSALHLAAQGRHAQT
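Note: lentivirally expressed fusions sorted by FACS into six bins by GFP to DsRed ratio, PSI derived from sequencing read proportions per bin multiplied by bin number.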

The variants in the first data set derive from B1. Put plainly: protein stability index of a GFP-peptide fusion (GPS, HEK-293T) (PSI 1-6); higher = more stable. The note with it: c terminus: a fixed tail appended.
For the variant SIMPLVIKVTSATSVNLGILTADL [F2I], the protein stability index stood at 3.41.

With SKMPLVIKVTSATSVNLGILTADL [F2K], the protein stability index turned out to be 3. Consider SAMPLVIKVTSATSVNLGILTADL [F2A], for which the protein stability index worked out at 2.38.

Turning to SHMPLVIKVTSATSVNLGILTADL [F2H], the protein stability index came out at 1.71. For SEMPLVIKVTSATSVNLGILTADL [F2E], the protein stability index came to 2.65. For SCMPLVIKVTSATSVNLGILTADL [F2C], the protein stability index was 2.58. Turning to SGMPLVIKVTSATSVNLGILTADL [F2G], the protein stability index amounted to 3.11. SDMPLVIKVTSATSVNLGILTADL [F2D]: the protein stability index came to 2.12. Still for that read-out and setting: next, IFMPLVIKVTSATSVNLGILTADL [S1I]: 3.16; FFMPLVIKVTSATSVNLGILTADL [S1F]: 3.08. On to KFMPLVIKVTSATSVNLGILTADL [S1K], for which the protein stability index was 5.06. On to EFMPLVIKVTSATSVNLGILTADL [S1E], for which the protein stability index came to 4.28. Still for that read-out and setting: the figure for AFMPLVIKVTSATSVNLGILTADL [S1A] is 3.22; for NFMPLVIKVTSATSVNLGILTADL [S1N] it is 3.55.

Consider LFMPLVIKVTSATSVNLGILTADL [S1L], for which the protein stability index is 3.05. With RFMPLVIKVTSATSVNLGILTADL [S1R], the protein stability index was 2.98. Regarding HFMPLVIKVTSATSVNLGILTADL [S1H], the protein stability index came to 2.96. Same read-out and setting: next, WFMPLVIKVTSATSVNLGILTADL [S1W]: 3.82.

For the variant TFMPLVIKVTSATSVNLGILTADL [S1T], the protein stability index is 3.15.

Regarding CFMPLVIKVTSATSVNLGILTADL [S1C], the protein stability index came to 3.77. As for MFMPLVIKVTSATSVNLGILTADL [S1M], the protein stability index stood at 2.14.

As to GFMPLVIKVTSATSVNLGILTADL [S1G], the protein stability index amounted to 2.77.

As for PFMPLVIKVTSATSVNLGILTADL [S1P], the protein stability index was 3.06. YFMPLVIKVTSATSVNLGILTADL [S1Y]: the protein stability index was determined as 3.38.

The next data set covers variants of B2. The description is as above. The note with it: c terminus: a fixed tail appended.
In the case of VIDLFDEQGLSALHLAAQGRHFQT [A22F], the protein stability index is 2.19. For the variant VIDLFDEQGLSALHLAAQGRHEQT [A22E], the protein stability index was 3.61. VIDLFDEQGLSALHLAAQGRHSQT [A22S]: the protein stability index was determined as 2.91. VIDLFDEQGLSALHLAAQGRHRQT [A22R]: the protein stability index stood at 3.13.

Take VIDLFDEQGLSALHLAAQGRHVQT [A22V]: the protein stability index is 2.42. Take VIDLFDEQGLSALHLAAQGRHDQT [A22D]: the protein stability index was 3.03. Take VIDLFDEQGLSALHLAAQGRHIQT [A22I]: the protein stability index turned out to be 2.14. Regarding VIDLFDEQGLSALHLAAQGRHMQT [A22M], the protein stability index was 2.4. Same read-out and setting: next, VIDLFDEQGLSALHLAAQGRHHQT [A22H]: 2.87; VIDLFDEQGLSALHLAAQGRHTQT [A22T]: 3.03. In the case of VIDLFDEQGLSALHLAAQGRHWQT [A22W], the protein stability index amounted to 1.57.

Turning to VIDLFDEQGLSALHLAAQGRHPQT [A22P], the protein stability index is 2.79. In the case of VIDLFDEQGLSALHLAAQGRHKQT [A22K], the protein stability index was determined as 3.17. Regarding VIDLFDEQGLSALHLAAQGRHNQT [A22N], the protein stability index came to 3.09. For VIDLFDEQGLSALHLAAQGRHGQT [A22G], the protein stability index was 2.73.

On to VIDLFDEQGLSALHLAAQGRHYQT [A22Y], for which the protein stability index stood at 2.23. Same read-out and setting: the figure for VIDLFDEQGLSALHLAAQGRHLQT [A22L] is 2.1; for VIDLFDEQGLSALHLAAQGRHQQT [A22Q] it is 3.15. Same read-out and setting: next, VIDLFDEQGLSALHLAAQGRHCQT [A22C]: 2.32; VIDLFDEQGLSALHLAAQGRNAQT [H21N]: 3.06. Turning to VIDLFDEQGLSALHLAAQGRQAQT [H21Q], the protein stability index was determined as 3.23. In the case of VIDLFDEQGLSALHLAAQGRPAQT [H21P], the protein stability index came to 3.01.

As to VIDLFDEQGLSALHLAAQGRWAQT [H21W], the protein stability index is 1.9. As to VIDLFDEQGLSALHLAAQGRMAQT [H21M], the protein stability index turned out to be 2.56.

For the variant VIDLFDEQGLSALHLAAQGRKAQT [H21K], the protein stability index is 3.41. Consider VIDLFDEQGLSALHLAAQGRRAQT [H21R], for which the protein stability index turned out to be 2.24. For VIDLFDEQGLSALHLAAQGRIAQT [H21I], the protein stability index amounted to 2.28. VIDLFDEQGLSALHLAAQGRYAQT [H21Y]: the protein stability index came out at 2.47. Consider VIDLFDEQGLSALHLAAQGRLAQT [H21L], for which the protein stability index stood at 2.66. On to VIDLFDEQGLSALHLAAQGRVAQT [H21V], for which the protein stability index was found to be 2.72. For VIDLFDEQGLSALHLAAQGRSAQT [H21S], the protein stability index was found to be 2.76. As to VIDLFDEQGLSALHLAAQGRTAQT [H21T], the protein stability index amounted to 3.07. Still for that read-out and setting: the figure for VIDLFDEQGLSALHLAAQGRHAQC [T24C] is 2.57. On the same count and under the same terms, the figure for VIDLFDEQGLSALHLAAQGRHAQD [T24D] is 3.76.

As to VIDLFDEQGLSALHLAAQGRHAQI [T24I], the protein stability index is 2.47. As to VIDLFDEQGLSALHLAAQGRHAQN [T24N], the protein stability index amounted to 2.92.

Take VIDLFDEQGLSALHLAAQGRHAQA [T24A]: the protein stability index stood at 2.5.

As to VIDLFDEQGLSALHLAAQGRHAQQ [T24Q], the protein stability index worked out at 2.51. Consider VIDLFDEQGLSALHLAAQGRHAQK [T24K], for which the protein stability index is 3.13. VIDLFDEQGLSALHLAAQGRHAQM [T24M]: the protein stability index worked out at 2.63.

Turning to VIDLFDEQGLSALHLAAQGRHAQY [T24Y], the protein stability index worked out at 1.91.

Turning to VIDLFDEQGLSALHLAAQGRHAQE [T24E], the protein stability index turned out to be 4. As for VIDLFDEQGLSALHLAAQGRHAQP [T24P], the protein stability index was found to be 2.41. With VIDLFDEQGLSALHLAAQGRHAQW [T24W], the protein stability index is 1.86. Turning to VIDLFDEQGLSALHLAAQGRHAQS [T24S], the protein stability index stood at 2.51.

On to VIDLFDEQGLSALHLAAQGRHAQH [T24H], for which the protein stability index was 2.38. In the case of VIDLFDEQGLSALHLAAQGRHAQF [T24F], the protein stability index amounted to 1.86. VIDLFDEQGLSALHLAAQGRHAQR [T24R]: the protein stability index is 3.38.

As for VIDLFDEQGLSALHLAAQGRHAQV [T24V], the protein stability index turned out to be 2.69. On to VIDLFDEQGLSALHLAAQGRHAQL [T24L], for which the protein stability index was found to be 2.09.

Take VIDLFDEQGLSALHLAAQGRHAQG [T24G]: the protein stability index was 3.15.

Consider VIDLFDEQGLSALHLAAQGRHAVT [Q23V], for which the protein stability index turned out to be 2.53. VIDLFDEQGLSALHLAAQGRHAST [Q23S]: the protein stability index came to 2.6. On the same count and under the same terms, the figure for VIDLFDEQGLSALHLAAQGRHAIT [Q23I] is 2.16. On the same count and under the same terms, the figure for VIDLFDEQGLSALHLAAQGRHAET [Q23E] is 3.48; for VIDLFDEQGLSALHLAAQGRHART [Q23R] it is 3.49; for VIDLFDEQGLSALHLAAQGRHAPT [Q23P] it is 2.66. On the same count and under the same terms, next, VIDLFDEQGLSALHLAAQGRHATT [Q23T]: 2.72; VIDLFDEQGLSALHLAAQGRHALT [Q23L]: 2.52; VIDLFDEQGLSALHLAAQGRHAYT [Q23Y]: 2.06. Turning to VIDLFDEQGLSALHLAAQGRHAFT [Q23F], the protein stability index turned out to be 1.76. As to VIDLFDEQGLSALHLAAQGRHADT [Q23D], the protein stability index was found to be 3.69.

As for VIDLFDEQGLSALHLAAQGRHANT [Q23N], the protein stability index is 2.84. VIDLFDEQGLSALHLAAQGRHAKT [Q23K]: the protein stability index was 3.17. On to VIDLFDEQGLSALHLAAQGRHAWT [Q23W], for which the protein stability index turned out to be 1.93. In the case of VIDLFDEQGLSALHLAAQGRHAGT [Q23G], the protein stability index is 2.8. In the case of VIDLFDEQGLSALHLAAQGRHAMT [Q23M], the protein stability index was determined as 1.84. As to VIDLFDEQGLSALHLAAQGRHAAT [Q23A], the protein stability index turned out to be 2.67. VIDLFDEQGLSALHLAAQGRHACT [Q23C]: the protein stability index is 2.59. As for VIDLFDEQGLSALHLAAQGRHAHT [Q23H], the protein stability index stood at 2.49.
